Source: US20250090676A1 (SUTRO BIOPHARMA, published 2025)

Key:
[1] = biological target: T1, murine folate receptor alpha (mouse, UniProt P35846 25-232); assay: FACS, CHO-mFOLR1 cells;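 further: flow cytometry binding of serially diluted test antibodies to transfected CHO cells on ice, mean fluorescence intensity, parental CHO cells give background, Kd from one-site specific binding fit with Hill slope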
T1 construct: Expressed on the surface of stably transfected CHO cells; also called mouse FolR1; CHO-mouse FolR1
Description: (§1) CHO cells were transfected to stably express human (CHO-hFOLR1), cynomolgus (CHO-cFOLR1), or mouse (CHO-mFOLR1) target molecule FOLR1 on the cell surface. Parental CHO cells were used as a negative control to determine background binding levels. Parental CHO and stably transfected CHO-hFOLR1, CHO-cFOLR1, and CHO-mFOLR1 cells were cultured in Ham's F-12: high glucose DMEM (50:50) (Corning, Cellgro-Mediatech) supplemented with 10% heat-inactivated fetal bovine serum (Corning, Cellgro-Mediatech), 1% Penicillin/Streptomycin (Corning, Cellgro-Mediatech) and 2 mmol/L-glutamax (Life Technology).
(§2) A mixture of fluoresecent-labeled parental CHO cells and unlabeled CHO-hFOLRlcells were prepared as follows. Parental CHO cells were washed twice in PBS and incubated in PBS containing with 1 nM CellTrace™ Oregon Green488® (Life Technologies) at 37° C. for 30 minutes. Labeled parental CHO cells were then washed 2× with Ham's F-12 media and 2× with FACS buffer (PBS with 1% bovine serum albumin). Unlabeled CHO-hFOLR1 cells were similarly washed and prepared. Labeled parental CHO and unlabeled CHO-hFOLR1 cells were combined at 1:1 ratio and seeded at 50 μL per well (200,000 cells per well) in 96 well polypropylene plates. Cells were mixed with 50 μL of test antibodies (i.e., anti-FOLR1 variants) serially diluted in FACS buffer and incubated on ice for 60 mins. […] Data were analyzed using FlowJo® software (FlowJo, LLC; Ashland, OR) to determine mean fluorescence intensities. Binding constants were calculated using the statistical software, GraphPad Prism (GraphPad Software; La Jolla, CA) using the nonlinear regression equation, one site-specific binding with Hill slope. Secondary antibody alone was used as a control, in addition to measuring non-specific antibody binding to CHO parental cells.

[2] = biological target: T2, cynomolgus monkey folate receptor alpha (cynomolgus monkey, UniProt P15328 25-234 (human entry)); assay: FACS, CHO-cFOLR1 cells
T2 construct: Expressed on the surface of stably transfected CHO cells; also called cyno FolR1; CHO-cyno FolR1
Description: as §1, §2

[3] = biological target: T3, human folate receptor alpha (hFOLR1) (human, UniProt P15328 25-234); assay: cell-based or functional assay
[4] = biological target: T3, human folate receptor alpha (hFOLR1); assay: FACS, CHO-hFOLR1 cells;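 further: flow cytometry of serially diluted antibodies binding CHO cells stably expressing the receptor, 60 min on ice, mixed with dye-tagged parental CHO as background control, one-site specific fit with Hill slope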
Description: as §1, §2

T1 sequence (P35846 25-232 limits assumed): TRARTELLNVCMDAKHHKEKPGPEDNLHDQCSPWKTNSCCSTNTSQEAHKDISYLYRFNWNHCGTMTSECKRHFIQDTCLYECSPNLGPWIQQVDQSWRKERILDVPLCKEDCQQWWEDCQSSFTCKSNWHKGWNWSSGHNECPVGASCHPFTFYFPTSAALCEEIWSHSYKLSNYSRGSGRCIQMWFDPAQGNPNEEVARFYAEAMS
T2 sequence (P15328 other isoform, or with tags, fused parts or gaps limits assumed): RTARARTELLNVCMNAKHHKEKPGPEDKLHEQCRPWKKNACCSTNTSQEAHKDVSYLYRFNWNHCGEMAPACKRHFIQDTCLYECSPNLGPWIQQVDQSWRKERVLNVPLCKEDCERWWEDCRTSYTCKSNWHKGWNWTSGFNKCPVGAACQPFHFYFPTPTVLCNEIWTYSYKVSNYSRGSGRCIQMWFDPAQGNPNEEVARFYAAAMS
T3 sequence (P15328 25-234 limits assumed): as the sequence (P15328 other isoform, or with tags, fused parts or gaps limits assumed) above, with T2I, R4W, K37R, R117Q, P146A, Y171H counted along it

B1: SRP1848-E02 (antibody, V domains shown)
VH: EVQLVESGGGLVQPGGSLRLSCAASGFNIGKYSIHWVRQAPGKGLEWVGEIYPNDGNTDYADSVKGRFTISADTSKNTAYLQMNSLRAEDTAVYYCARGSWSWRSGYGYYLDYWGQGTLVTVSS
VL: not shown
notes: HC variant paired with trastuzumab LC, cell-free expressed, HIS- and FLAG-tagged; also called SKP1848-E02; Antibody 32
[1]
  Bmax (MFI): 1470 MFI
  Kd: 21 nM
[2]
  Bmax (MFI): 18700 MFI
  Kd: 0.59 nM
[3]
  Igrov, 2° Antibody Cell Killing, Nb-SC239: EC50: 0.025 nM
  Igrov, 2° Antibody Cell Killing, Nb-SC239: Span: 71%
  KB, 2° Antibody Cell Killing, Nb-239: EC50: 0.046 nM
  KB, 2° Antibody Cell Killing, Nb-239: Span: 93%
[4]
  Bmax (MFI): 23800 MFI
  Kd: 0.53 nM

B2: SRP1848-F06 (antibody, V domains shown)
VH: EVQLVESGGGLVQPGGSLRLSCAASGFNISLSYIHWVRQAPGKGLEWVGGISPIDGNTDYADSVKGRFTISADTSKNTAYLQMNSLRAEDTAVYYCARGFWAWRSGYGYYLDYWGQGTLVTVSS
VL: not shown
notes: HC variant paired with trastuzumab LC, cell-free expressed, HIS- and FLAG-tagged; also called Antibody 41
[1]
  binding result: no binding
[2]
  Bmax (MFI): 26500 MFI
  Kd: 0.86 nM
[3]
  Igrov, 2° Antibody Cell Killing, Nb-SC239: EC50: 0.032 nM
  Igrov, 2° Antibody Cell Killing, Nb-SC239: Span: 77%
  KB, 2° Antibody Cell Killing, Nb-239: EC50: 0.066 nM
  KB, 2° Antibody Cell Killing, Nb-239: Span: 94%
[4]
  Bmax (MFI): 25600 MFI
  Kd: 0.87 nM

B3: SRP1848-F07 (antibody, V domains shown)
VH: EVQLVESGGGLVQPGGSLRLSCAASGFNISNHSIHWVRQAPGKGLEWVGEIYPNDGITDYADSVKGRFTISADTSKNTAYLQMNSLSAEDTAVYYCARGSWDWRSGYSYYLDYWGQGTLVTVSS
VL: not shown
notes: HC variant paired with trastuzumab LC, cell-free expressed, HIS- and FLAG-tagged; also called Antibody 42
[1]
  Bmax (MFI): 1390 MFI
  Kd: 8.8 nM
[2]
  Bmax (MFI): 18700 MFI
  Kd: 0.56 nM
[3]
  Igrov, 2° Antibody Cell Killing, Nb-SC239: EC50: 0.018 nM
  Igrov, 2° Antibody Cell Killing, Nb-SC239: Span: 71%
  KB, 2° Antibody Cell Killing, Nb-239: EC50: 0.057 nM
  KB, 2° Antibody Cell Killing, Nb-239: Span: 92%
[4]
  Bmax (MFI): 27400 MFI
  Kd: 0.58 nM

B4: SRP1848-F05 (antibody, V domains shown)
VH: EVQLVESGGGLVQPGGSLRLSCAASGFNISKSSIHWVRQAPGKGLEWVGEIYPNDGSTDYADSVKGRFTISADTSKNTAYLQMNSLRAEDTAVYYCARGSWAWRSGYSYFLDYWGQGTLVTVSS
VL: not shown
notes: HC variant paired with trastuzumab LC, cell-free expressed, HIS- and FLAG-tagged; also called Antibody 40
[1]
  Bmax (MFI): 5100 MFI
  Kd: 18 nM
[2]
  Bmax (MFI): 24700 MFI
  Kd: 0.61 nM
[3]
  Igrov, 2° Antibody Cell Killing, Nb-SC239: EC50: 0.015 nM
  Igrov, 2° Antibody Cell Killing, Nb-SC239: Span: 74%
  KB, 2° Antibody Cell Killing, Nb-239: EC50: 0.061 nM
  KB, 2° Antibody Cell Killing, Nb-239: Span: 94%
[4]
  Bmax (MFI): 27200 MFI
  Kd: 0.72 nM

B5: SRP1848-F11 (antibody, V domains shown)
VH: EVQLVESGGGLVQPGGSLRLSCAASGFNISNNYIHWVRQAPGKGLEWVGGITPIDGNTDYADSVKGRFTISADTSMNTAYLQMNSLRAEDTAVYYCARGSWYWRAGYGYYLDYWGQGALVTVSS
VL: not shown
notes: HC variant paired with trastuzumab LC, cell-free expressed, HIS- and FLAG-tagged; also called Antibody 46
[1]
  Bmax (MFI): 1760 MFI
  Kd: 4.6 nM
[2]
  Bmax (MFI): 21800 MFI
  Kd: 0.47 nM
[3]
  Igrov, 2° Antibody Cell Killing, Nb-SC239: EC50: 0.017 nM
  Igrov, 2° Antibody Cell Killing, Nb-SC239: Span: 70%
  KB, 2° Antibody Cell Killing, Nb-239: EC50: 0.054 nM
  KB, 2° Antibody Cell Killing, Nb-239: Span: 91%
[4]
  Bmax (MFI): 26800 MFI
  Kd: 0.75 nM

B6: SRP1848-F02 (antibody, V domains shown)
VH: EVQLVESGGGLVQPGGSLRLSCAASGFNIRTYSIHWVRQAPGKGLEWVGSIFPNDGTTDYADSVKGRLTISADTSKNTAYLQMNSLRAEDTAVYYCARGSWSWQAGYGYYLDYWGQGTLVTVSS
VL: not shown
notes: HC variant paired with trastuzumab LC, cell-free expressed, HIS- and FLAG-tagged; also called Antibody 38
[1]
  Bmax (MFI): 2740 MFI
  Kd: 2.6 nM
[2]
  Bmax (MFI): 14900 MFI
  Kd: 0.19 nM
[3]
  Igrov, 2° Antibody Cell Killing, Nb-SC239: EC50: 0.009 nM
  Igrov, 2° Antibody Cell Killing, Nb-SC239: Span: 54%
  KB, 2° Antibody Cell Killing, Nb-239: EC50: 0.054 nM
  KB, 2° Antibody Cell Killing, Nb-239: Span: 92%
[4]
  Bmax (MFI): 25700 MFI
  Kd: 0.62 nM

B7: SRP1848-F08 (antibody, V domains shown)
VH: EVQLVESGGGLVQPGGSLRLSCAAGGFNISNHSIHWVRQAPGKGVEWVGEIYPVDGITDYADSVKGRFTISADTSKNTAYLRMNSLRAEDTAVYYCARGSWYWQSGYSYYLDYWGQGTLVTVSS
VL: not shown
notes: HC variant paired with trastuzumab LC, cell-free expressed, HIS- and FLAG-tagged; also called Antibody 43
[1]
  binding result: no binding
[2]
  Bmax (MFI): 21000 MFI
  Kd: 1.07 nM
[3]
  Igrov, 2° Antibody Cell Killing, Nb-SC239: EC50: 0.024 nM
  Igrov, 2° Antibody Cell Killing, Nb-SC239: Span: 77%
  KB, 2° Antibody Cell Killing, Nb-239: EC50: 0.061 nM
  KB, 2° Antibody Cell Killing, Nb-239: Span: 94%
[4]
  Bmax (MFI): 26500 MFI
  Kd: 0.91 nM

B8: SRP1848-E05 (antibody, V domains shown)
VH: EVQLVESGGGLVQPGGSLRVSCAASGFNIGVYYIHWVRQAPGKGLEWVGGITPNDGYTDYADSVKGRFTISADTSKNTAYLQMNSLRAEDTAVYYCARGFWAWRSGYGYYLDYWGQGTLVTVSS
VL: not shown
notes: HC variant paired with trastuzumab LC, cell-free expressed, HIS- and FLAG-tagged; also called Antibody 34
[1]
  binding result: no binding
[2]
  Bmax (MFI): 28200 MFI
  Kd: 0.55 nM
[3]
  Igrov, 2° Antibody Cell Killing, Nb-SC239: EC50: 0.027 nM
  Igrov, 2° Antibody Cell Killing, Nb-SC239: Span: 78%
  KB, 2° Antibody Cell Killing, Nb-239: EC50: 0.071 nM
  KB, 2° Antibody Cell Killing, Nb-239: Span: 95%
[4]
  Bmax (MFI): 27300 MFI
  Kd: 0.46 nM

B9: SRP1848-G01 (antibody, V domains shown)
VH: EVQLVESGGGLVQPGGSLRLSCAASGFNISRHSIHWVRQAPGKGLEWVGWIAPNDGSTDYADSVKGRFTISADTSKNTAYLQMNSLRAEDTAVYYCARGSWAWRSGYSYFLDYWGQGTLVTVSS
VL: not shown
notes: HC variant paired with trastuzumab LC, cell-free expressed, HIS- and FLAG-tagged; also called Antibody 47
[1]
  Bmax (MFI): 1990 MFI
  Kd: 4.6 nM
[2]
  Bmax (MFI): 20900 MFI
  Kd: 0.56 nM
[3]
  Igrov, 2° Antibody Cell Killing, Nb-SC239: EC50: 0.022 nM
  Igrov, 2° Antibody Cell Killing, Nb-SC239: Span: 66%
  KB, 2° Antibody Cell Killing, Nb-239: EC50: 0.07 nM
  KB, 2° Antibody Cell Killing, Nb-239: Span: 91%
[4]
  Bmax (MFI): 27400 MFI
  Kd: 0.98 nM

B10: SRP1848-F09 (antibody, V domains shown)
VH: EVQLVESGGGLVQPGGSLRLSCAASGFNISNHYIHWVRQAPGKGLEWVGGISPLDGYTDYADSVKGRFTISADTSKNTAYLQMNSLRAEDTAVYYCARGAWSWRSGYGYYIDYWGQGTLVTVSS
VL: not shown
notes: HC variant paired with trastuzumab LC, cell-free expressed, HIS- and FLAG-tagged; also called Antibody 44
[1]
  Bmax (MFI): 1670 MFI
  Kd: 90.7 nM
[2]
  Bmax (MFI): 24200 MFI
  Kd: 0.75 nM
[3]
  Igrov, 2° Antibody Cell Killing, Nb-SC239: EC50: 0.05 nM
  Igrov, 2° Antibody Cell Killing, Nb-SC239: Span: 79%
  KB, 2° Antibody Cell Killing, Nb-239: EC50: 0.056 nM
  KB, 2° Antibody Cell Killing, Nb-239: Span: 93%
[4]
  Bmax (MFI): 23800 MFI
  Kd: 0.36 nM

B11: SRP1848-F10 (antibody, V domains shown)
VH: EVQLVESGGGLVQPGGSLRLSCAASGFNISNNSIHWVRQAPGKGLEWVGSIFPNDGYTDYADSVKGRFTISADTSKNTAYLQMNSLRAEDTAVYYCARGSWFWRSGYGYYLDYWGQGTLVTVSS
VL: not shown
notes: HC variant paired with trastuzumab LC, cell-free expressed, HIS- and FLAG-tagged; also called Antibody 45
[1]
  Bmax (MFI): 1740 MFI
  Kd: 6.9 nM
[2]
  Bmax (MFI): 20700 MFI
  Kd: 0.4 nM
[3]
  Igrov, 2° Antibody Cell Killing, Nb-SC239: EC50: 0.009 nM
  Igrov, 2° Antibody Cell Killing, Nb-SC239: Span: 68%
  KB, 2° Antibody Cell Killing, Nb-239: EC50: 0.038 nM
  KB, 2° Antibody Cell Killing, Nb-239: Span: 94%
[4]
  Bmax (MFI): 25600 MFI
  Kd: 0.36 nM

B12: SRP1848-E07 (antibody, V domains shown)
VH: EVQLVESGGGLVQPGGSLRLSCAASGFNIRKSSIHWVRQAPGKGLEWVGEIFPYDGSTDYADNVKGRFTISADTSKNTAYLQMNSLRAEDTAVYYCARGAWSWRSGYGYYIDYWGQGTLVTVSS
VL: not shown
notes: HC variant paired with trastuzumab LC, cell-free expressed, HIS- and FLAG-tagged; also called Antibody 36
[1]
  Bmax (MFI): 11800 MFI
  Kd: 1.2 nM
[2]
  Bmax (MFI): 20400 MFI
  Kd: 0.23 nM
[3]
  Igrov, 2° Antibody Cell Killing, Nb-SC239: EC50: 0.013 nM
  Igrov, 2° Antibody Cell Killing, Nb-SC239: Span: 73%
  KB, 2° Antibody Cell Killing, Nb-239: EC50: 0.059 nM
  KB, 2° Antibody Cell Killing, Nb-239: Span: 94%
[4]
  Bmax (MFI): 27300 MFI
  Kd: 0.54 nM

B13: SRP1848-F01 (antibody, V domains shown)
VH: EVQLVESGGGLVQPGGSLRLSCAASGFNIRTYSIHWVRQAPGKGLEWVGSIFPNDGTTDYADSVKGRFTISADTSKNTAYLQMNSLRAEDTAVYYCARGSWAWRAGYSYYLDYWGQGTLVTVSS
VL: not shown
notes: HC variant paired with trastuzumab LC, cell-free expressed, HIS- and FLAG-tagged; also called Antibody 37
[1]
  Bmax (MFI): 3750 MFI
  Kd: 1.8 nM
[2]
  Bmax (MFI): 21500 MFI
  Kd: 0.43 nM
[3]
  Igrov, 2° Antibody Cell Killing, Nb-SC239: EC50: 0.018 nM
  Igrov, 2° Antibody Cell Killing, Nb-SC239: Span: 69%
  KB, 2° Antibody Cell Killing, Nb-239: EC50: 0.047 nM
  KB, 2° Antibody Cell Killing, Nb-239: Span: 91%
[4]
  Bmax (MFI): 25200 MFI
  Kd: 0.56 nM
